Source: US20140087995A1 (published 2014)
Changes are numbered by the printed parent chain. Numbered stars: 1 amine (or outer) side, 2 acyl side, 3 side chain; on linkers, the order of the positions; unused ones are H or OH. Bridge positions count the residues as written; N and C are the ends. Side chains are listed from the residue outwards. Ends that are not written are not given here. * marks the point of attachment. C20 diacid = O=C(O)CCCCCCCCCCCCCCCCCCC(=O)*; γGlu = O=C(O)[C@H](CCC(=O)[*:2])N[*:1]; AEEA = NCCOCCOCC(=O)O

T1: human amylin receptor (amylin 3(a) receptor: human calcitonin receptor with RAMP-3) (human, UniProt P30988 25-474; O60896 24-148)
T1 construct: whole, on cells; also called hAmylin-R; hAmylinR
T1 sequence (looked up) 1: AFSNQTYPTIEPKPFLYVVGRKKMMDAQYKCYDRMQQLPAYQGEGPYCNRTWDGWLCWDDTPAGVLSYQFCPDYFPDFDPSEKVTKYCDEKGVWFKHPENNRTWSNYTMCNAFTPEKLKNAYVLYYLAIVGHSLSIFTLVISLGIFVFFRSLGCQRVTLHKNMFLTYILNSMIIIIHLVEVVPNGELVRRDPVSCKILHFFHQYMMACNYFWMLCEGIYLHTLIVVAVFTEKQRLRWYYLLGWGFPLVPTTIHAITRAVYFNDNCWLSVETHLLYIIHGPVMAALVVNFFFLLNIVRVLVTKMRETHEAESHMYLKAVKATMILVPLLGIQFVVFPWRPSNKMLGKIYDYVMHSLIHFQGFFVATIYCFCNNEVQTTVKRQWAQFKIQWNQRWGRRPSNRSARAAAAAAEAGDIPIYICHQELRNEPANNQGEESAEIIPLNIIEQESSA
T1 sequence (looked up) 2: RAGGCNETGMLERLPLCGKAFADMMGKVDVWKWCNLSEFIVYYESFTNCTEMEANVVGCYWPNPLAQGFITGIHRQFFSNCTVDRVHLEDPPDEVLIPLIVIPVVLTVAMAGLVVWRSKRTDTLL

T2: human amylin receptor (human, UniProt P30988 25-474; O60896 24-148, limits assumed)
T2 construct: whole, on cells; Calcitonin receptor plus RAMP-3 gives the amylin 3(a) receptor; membranes of Amylin 3(a)/CRE-luc cells were used; also called hAmylin-R; hAmylinR
T2 sequence (looked up) 1: T1 sequence (looked up) 1
T2 sequence (looked up) 2: T1 sequence (looked up) 2

B1: N^α1-[2-[2-[2-[[2-[2-[2-[[(4S)-4-carboxy-4-(19-carboxynonadecanoylamino)butanoyl]amino]ethoxy]ethoxy]acetyl]amino]ethoxy]ethoxy]acetyl]-[Glu14,Arg17,Pro21,Pro27 … (peptide)
peptide: KCNTATCATQRLAEFLRHSSPNFGAIPSSTNVGSNTY
modifications: C20 diacid-gGlu-2xOEG on alpha amino group of N-terminal Lys 1; Cys2-Cys7 disulfide; C-terminal amide
notes: also called 19; compound 19
B2: N^α1-[2-[2-[2-[[2-[2-[2-[[(4S)-4-carboxy-4-(19-carboxynonadecanoylamino)butanoyl]amino]ethoxy]ethoxy]acetyl]amino]ethoxy]ethoxy]acetyl]-[Glu14,Arg17,Pro21,Pro27 … (peptide)
peptide: {C20 diacid-γGlu-AEEA-AEEA}-KCNTATCATQRLAEFLRHSSPNFGAIPSSTNVGSNTP-NH2
modifications: disulfide 2-7
SMILES: CC[C@H](C)[C@H](NC(=O)[C@H](C)NC(=O)CNC(=O)[C@H](Cc1ccccc1)NC(=O)[C@H](CC(N)=O)NC(=O)[C@@H]1CCCN1C(=O)[C@H](CO)NC(=O)[C@H](CO)NC(=O)[C@H](Cc1c[nH]cn1)NC(=O)[C@H](CCCNC(=N)N)NC(=O)[C@H](CC(C)C)NC(=O)[C@H](Cc1ccccc1)NC(=O)[C@H](CCC(=O)O)NC(=O)[C@H](C)NC(=O)[C@H](CC(C)C)NC(=O)[C@H](CCCNC(=N)N)NC(=O)[C@H](CCC(N)=O)NC(=O)[C@@H](NC(=O)[C@H](C)NC(=O)[C@@H]1CSSC[C@H](NC(=O)[C@H](CCCCN)NC(=O)COCCOCCNC(=O)COCCOCCNC(=O)CC[C@H](NC(=O)CCCCCCCCCCCCCCCCCCC(=O)O)C(=O)O)C(=O)N[C@@H](CC(N)=O)C(=O)N[C@@H]([C@@H](C)O)C(=O)N[C@@H](C)C(=O)N[C@@H]([C@@H](C)O)C(=O)N1)[C@@H](C)O)C(=O)N1CCC[C@H]1C(=O)N[C@@H](CO)C(=O)N[C@@H](CO)C(=O)N[C@H](C(=O)N[C@@H](CC(N)=O)C(=O)N[C@H](C(=O)NCC(=O)N[C@@H](CO)C(=O)N[C@@H](CC(N)=O)C(=O)N[C@H](C(=O)N1CCC[C@H]1C(N)=O)[C@@H](C)O)C(C)C)[C@@H](C)O
notes: also called 20; compound 20
B3: N^α1-[(4S)-4-carboxy-4-(19-carboxynonadecanoylamino)butanoyl]-[Arg17,Pro21,Pro27,Arg34]-h-amylin (peptide)
peptide: B1 peptide with E14N, S34R
modifications: C20 diacid-gGlu on alpha amino group of N-terminal Lys 1; Cys2-Cys7 disulfide; C-terminal amide
notes: also called 39; compound 39
B4: N^ε1-[(4S)-4-carboxy-4-(19-carboxynonadecanoylamino)butanoyl]-[Arg17,Pro21,Pro27]-h-amylin (peptide)
peptide: K([γGlu-C20 diacid])CNTATCATQRLANFLRHSSPNFGAIPSSTNVGSNTY-NH2
modifications: disulfide 2-7; N-terminus assumed
SMILES: CC[C@H](C)[C@H](NC(=O)[C@H](C)NC(=O)CNC(=O)[C@H](Cc1ccccc1)NC(=O)[C@H](CC(N)=O)NC(=O)[C@@H]1CCCN1C(=O)[C@H](CO)NC(=O)[C@H](CO)NC(=O)[C@H](Cc1c[nH]cn1)NC(=O)[C@H](CCCNC(=N)N)NC(=O)[C@H](CC(C)C)NC(=O)[C@H](Cc1ccccc1)NC(=O)[C@H](CC(N)=O)NC(=O)[C@H](C)NC(=O)[C@H](CC(C)C)NC(=O)[C@H](CCCNC(=N)N)NC(=O)[C@H](CCC(N)=O)NC(=O)[C@@H](NC(=O)[C@H](C)NC(=O)[C@@H]1CSSC[C@H](NC(=O)[C@@H](N)CCCCNC(=O)CC[C@H](NC(=O)CCCCCCCCCCCCCCCCCCC(=O)O)C(=O)O)C(=O)N[C@@H](CC(N)=O)C(=O)N[C@@H]([C@@H](C)O)C(=O)N[C@@H](C)C(=O)N[C@@H]([C@@H](C)O)C(=O)N1)[C@@H](C)O)C(=O)N1CCC[C@H]1C(=O)N[C@@H](CO)C(=O)N[C@@H](CO)C(=O)N[C@H](C(=O)N[C@@H](CC(N)=O)C(=O)N[C@H](C(=O)NCC(=O)N[C@@H](CO)C(=O)N[C@@H](CC(N)=O)C(=O)N[C@H](C(=O)N[C@@H](Cc1ccc(O)cc1)C(N)=O)[C@@H](C)O)C(C)C)[C@@H](C)O
notes: also called 17R, 21P, 27P
B5: N^ε-[2-[2-[2-[[(4S)-4-carboxy-4-(19-carboxynonadecanoylamino)butanoyl]amino]ethoxy]ethoxy]acetyl]Lys[Arg1,Arg17,Pro21,Pro27,His35]-h-amylin (peptide)
peptide: K([AEEA-γGlu-C20 diacid])RCNTATCATQRLANFLRHSSPNFGAIPSSTNVGSHTY-NH2
modifications: disulfide 3-8; N-terminus assumed
SMILES: CC[C@H](C)[C@H](NC(=O)[C@H](C)NC(=O)CNC(=O)[C@H](Cc1ccccc1)NC(=O)[C@H](CC(N)=O)NC(=O)[C@@H]1CCCN1C(=O)[C@H](CO)NC(=O)[C@H](CO)NC(=O)[C@H](Cc1c[nH]cn1)NC(=O)[C@H](CCCNC(=N)N)NC(=O)[C@H](CC(C)C)NC(=O)[C@H](Cc1ccccc1)NC(=O)[C@H](CC(N)=O)NC(=O)[C@H](C)NC(=O)[C@H](CC(C)C)NC(=O)[C@H](CCCNC(=N)N)NC(=O)[C@H](CCC(N)=O)NC(=O)[C@@H](NC(=O)[C@H](C)NC(=O)[C@@H]1CSSC[C@H](NC(=O)[C@H](CCCNC(=N)N)NC(=O)[C@@H](N)CCCCNC(=O)COCCOCCNC(=O)CC[C@H](NC(=O)CCCCCCCCCCCCCCCCCCC(=O)O)C(=O)O)C(=O)N[C@@H](CC(N)=O)C(=O)N[C@@H]([C@@H](C)O)C(=O)N[C@@H](C)C(=O)N[C@@H]([C@@H](C)O)C(=O)N1)[C@@H](C)O)C(=O)N1CCC[C@H]1C(=O)N[C@@H](CO)C(=O)N[C@@H](CO)C(=O)N[C@H](C(=O)N[C@@H](CC(N)=O)C(=O)N[C@H](C(=O)NCC(=O)N[C@@H](CO)C(=O)N[C@@H](Cc1c[nH]cn1)C(=O)N[C@H](C(=O)N[C@@H](Cc1ccc(O)cc1)C(N)=O)[C@@H](C)O)C(C)C)[C@@H](C)O
notes: also called -1K, 1R, 17R, 21P, 27P, 35H
B6: N{-1}-[(4S)-4-carboxy-4-(19-carboxynonadecanoylamino)butanoyl]-Gly[Arg1,His14,Arg17,Pro21,Pro27]-h-amylin (peptide)
peptide: {C20 diacid-γGlu}-GRCNTATCATQRLAHFLRHSSPNFGAIPSSTNVGSNTY-NH2
modifications: disulfide 3-8
SMILES: CC[C@H](C)[C@H](NC(=O)[C@H](C)NC(=O)CNC(=O)[C@H](Cc1ccccc1)NC(=O)[C@H](CC(N)=O)NC(=O)[C@@H]1CCCN1C(=O)[C@H](CO)NC(=O)[C@H](CO)NC(=O)[C@H](Cc1c[nH]cn1)NC(=O)[C@H](CCCNC(=N)N)NC(=O)[C@H](CC(C)C)NC(=O)[C@H](Cc1ccccc1)NC(=O)[C@H](Cc1c[nH]cn1)NC(=O)[C@H](C)NC(=O)[C@H](CC(C)C)NC(=O)[C@H](CCCNC(=N)N)NC(=O)[C@H](CCC(N)=O)NC(=O)[C@@H](NC(=O)[C@H](C)NC(=O)[C@@H]1CSSC[C@H](NC(=O)[C@H](CCCNC(=N)N)NC(=O)CNC(=O)CC[C@H](NC(=O)CCCCCCCCCCCCCCCCCCC(=O)O)C(=O)O)C(=O)N[C@@H](CC(N)=O)C(=O)N[C@@H]([C@@H](C)O)C(=O)N[C@@H](C)C(=O)N[C@@H]([C@@H](C)O)C(=O)N1)[C@@H](C)O)C(=O)N1CCC[C@H]1C(=O)N[C@@H](CO)C(=O)N[C@@H](CO)C(=O)N[C@H](C(=O)N[C@@H](CC(N)=O)C(=O)N[C@H](C(=O)NCC(=O)N[C@@H](CO)C(=O)N[C@@H](CC(N)=O)C(=O)N[C@H](C(=O)N[C@@H](Cc1ccc(O)cc1)C(N)=O)[C@@H](C)O)C(C)C)[C@@H](C)O
notes: also called -1G, 1R, 14H, 17R, 21P, 27P
B7: N^ε-[(4S)-4-carboxy-4-(19-carboxynonadecanoylamino)butanoyl]Lys[Arg1,Arg17,Pro21,Pro27,His35]-h-amylin (peptide)
peptide: K([γGlu-C20 diacid])RCNTATCATQRLANFLRHSSPNFGAIPSSTNVGSHTY-NH2
modifications: disulfide 3-8; N-terminus assumed
SMILES: CC[C@H](C)[C@H](NC(=O)[C@H](C)NC(=O)CNC(=O)[C@H](Cc1ccccc1)NC(=O)[C@H](CC(N)=O)NC(=O)[C@@H]1CCCN1C(=O)[C@H](CO)NC(=O)[C@H](CO)NC(=O)[C@H](Cc1c[nH]cn1)NC(=O)[C@H](CCCNC(=N)N)NC(=O)[C@H](CC(C)C)NC(=O)[C@H](Cc1ccccc1)NC(=O)[C@H](CC(N)=O)NC(=O)[C@H](C)NC(=O)[C@H](CC(C)C)NC(=O)[C@H](CCCNC(=N)N)NC(=O)[C@H](CCC(N)=O)NC(=O)[C@@H](NC(=O)[C@H](C)NC(=O)[C@@H]1CSSC[C@H](NC(=O)[C@H](CCCNC(=N)N)NC(=O)[C@@H](N)CCCCNC(=O)CC[C@H](NC(=O)CCCCCCCCCCCCCCCCCCC(=O)O)C(=O)O)C(=O)N[C@@H](CC(N)=O)C(=O)N[C@@H]([C@@H](C)O)C(=O)N[C@@H](C)C(=O)N[C@@H]([C@@H](C)O)C(=O)N1)[C@@H](C)O)C(=O)N1CCC[C@H]1C(=O)N[C@@H](CO)C(=O)N[C@@H](CO)C(=O)N[C@H](C(=O)N[C@@H](CC(N)=O)C(=O)N[C@H](C(=O)NCC(=O)N[C@@H](CO)C(=O)N[C@@H](Cc1c[nH]cn1)C(=O)N[C@H](C(=O)N[C@@H](Cc1ccc(O)cc1)C(N)=O)[C@@H](C)O)C(C)C)[C@@H](C)O
notes: as for B5

target: T1, human amylin receptor (amylin 3(a) …); assay: SPA displacement of 125I-rat amylin, hAmylin 3(a) receptor membranes
Description: The binding assay was performed using scintillation proximity assay (SPA) beads (RPNQ0001) from PerkinElmer and cell membranes from the Amylin 3(a)/CRE-luc cells (as described in Assay (II)) were used. Membranes were prepared in the following way; the cells were rinsed with PBS and incubated with Versene for approximately 5 min before harvesting. The cells were flushed with PBS and the cell-suspension was centrifuged for 5 min at 1000 rpm. Cells were homogenized (ultrathurrax) in a buffer containing 20 mM Na-HEPES and 10 mM EDTA (pH 7.4) and centrifuged at 20.000 rpm for 15 min. The resulting pellet was resuspended, homogenized and centrifuged (20.000 rpm, 15 min) in a buffer containing 20 mM Na-HEPES and 0.1 mM EDTA (pH 7.4, buffer 2). The resulting pellet was resuspended in buffer 2 and protein concentration was measured (BCA protein Assay, Pierce). The homogenate was kept cold during the whole procedure. The membranes were kept at −80° C. until use. The assay was performed in a 384 well Optiplate (PerkinElmer) in a total volume of 40 ul. Membranes were mixed with SPA beads. Final concentration of membranes 35 ng/μL final and SPA beads was 0.05 mg/well. Test-compounds were dissolved in DMSO and further diluted in assay buffer (50 mM Hepes, pH 7.4, 1 mM CaCl2, 5 mM MgCl₂, 0.1% OA and 0.02% Tween20). […] The final mixture was incubated with shaking at 400 rpm for 120 min at 25° C. prior to centrifugation (1500 rpm, 10 min). Samples were analyzed on TopCounter™ (Packard). The IC₅₀ was calculated using (one site binding competition analysis) GraphPad Prism5 as a measure of receptor affinity.

IC50 [nM] | Binder
0.556 | B1
0.217 | B2
0.665 | B3

target: T2, human amylin receptor; assay: SPA competition binding, displacement of 125I-rat amylin from membranes with human amylin 3(a) receptor (Assay V)
Procedure, shortened: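 SPA beads + BHK amylin 3(a)/CRE-luc membranes, 35 ng/μL final; buffer 50 mM Hepes pH 7.4, 1 mM CaCl2, 5 mM MgCl₂, 0.1% OA, 0.02% Tween20. 120 min, 25° C, shaken; scintillation count. IC₅₀ by one-site binding competition fit, taken as receptor affinity.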

IC50 [nM] | Binder
0.443 | B4
0.552 | B5
0.348 | B6
0.275 | B7
